Experimental data: US20260078175A1 (Boehringer Ingelheim, published 2026)

How the values were obtained:
[1] = molecular target: Cynomolgus Sema3A (cynomolgus); test: SPR (GLM sensorchip), antibody captured on Human Fab Binder, Sema3A as analyte, 1:1 Langmuir fit
[2] = molecular target: T1, Human semaphorin 3A (Sema3A) (human, UniProt Q14563 21-771); test: SPR (BioRad GLM chip), antibody captured on anti-human Fab antibody, human Sema3A as analyte, 1:1 Langmuir fit
T1 construct: also called human Sema3A; HuSema3A
T1 sequence: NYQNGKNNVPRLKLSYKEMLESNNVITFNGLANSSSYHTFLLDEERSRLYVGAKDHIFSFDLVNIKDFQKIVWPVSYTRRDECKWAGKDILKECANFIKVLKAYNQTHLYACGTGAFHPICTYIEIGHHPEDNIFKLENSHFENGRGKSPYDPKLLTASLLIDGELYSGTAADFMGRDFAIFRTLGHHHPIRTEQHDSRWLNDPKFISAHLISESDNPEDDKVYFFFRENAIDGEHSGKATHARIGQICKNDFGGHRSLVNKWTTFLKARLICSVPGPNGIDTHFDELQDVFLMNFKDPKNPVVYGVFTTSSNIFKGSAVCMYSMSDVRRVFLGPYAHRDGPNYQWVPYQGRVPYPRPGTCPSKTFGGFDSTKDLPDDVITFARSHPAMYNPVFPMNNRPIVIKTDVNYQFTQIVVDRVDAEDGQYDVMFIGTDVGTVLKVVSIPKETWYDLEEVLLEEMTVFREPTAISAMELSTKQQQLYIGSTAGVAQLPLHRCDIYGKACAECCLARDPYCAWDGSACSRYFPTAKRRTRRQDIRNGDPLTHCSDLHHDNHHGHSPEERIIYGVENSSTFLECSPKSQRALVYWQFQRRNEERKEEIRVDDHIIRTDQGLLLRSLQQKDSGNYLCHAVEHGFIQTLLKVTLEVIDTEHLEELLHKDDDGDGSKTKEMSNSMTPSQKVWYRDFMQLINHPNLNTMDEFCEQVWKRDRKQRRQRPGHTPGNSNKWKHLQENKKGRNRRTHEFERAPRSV
Method: A high surface density of anti-human Fab antibody (GE Healthcare) was immobilized over a GLM chip (BioRad) via direct amine coupling over 6 horizontal channels according to the BioRad manufacturer's manual.
The antibody of the invention (clone 1) and the Chiome antibodies were captured over the anti-human Fab antibody surface over 5 of 6 vertical channels with a minimum surface density for the kinetic binding assay. Human Sema3A was prepared in PBS-T-EDTA buffer (BioRad) at concentrations of 100, 50, 25, 12.5, 10, 6.25, 5, 2.5, 1.25, 0.625 and 0 nM. A PBS-T-EDTA buffer injection was used as a double reference for the kinetic data analysis. Each of the human Sema3A solutions and PBS-T-EDTA buffer were injected simultaneously over the 6 horizontal channels for 10 min at a flow rate of 40 μL/min followed by 2 hr dissociation phase. The surfaces were regenerated by an 18 sec injection of 10 mM pH 2.1 glycine HCl (GE Healthcare) at a flow rate of 100 μL/min followed by an injection of 60 sec PBS-T-EDTA at a flow rate of 25 μL/min.

[3] = molecular target: Cynomolgus Sema3A (cynomolgus); test: SPR (BioRad GLM chip), antibody captured on goat anti-human IgG, Sema3A as analyte, 1:1 Langmuir fit
[4] = molecular target: T2, Mouse Sema3A (mouse, UniProt O08665 21-772, limits assumed); test: SPR (GLM sensorchip), antibody captured on Human Fab Binder, Sema3A as analyte, 1:1 Langmuir fit
T2 construct: Construct not described
T2 sequence (looked up): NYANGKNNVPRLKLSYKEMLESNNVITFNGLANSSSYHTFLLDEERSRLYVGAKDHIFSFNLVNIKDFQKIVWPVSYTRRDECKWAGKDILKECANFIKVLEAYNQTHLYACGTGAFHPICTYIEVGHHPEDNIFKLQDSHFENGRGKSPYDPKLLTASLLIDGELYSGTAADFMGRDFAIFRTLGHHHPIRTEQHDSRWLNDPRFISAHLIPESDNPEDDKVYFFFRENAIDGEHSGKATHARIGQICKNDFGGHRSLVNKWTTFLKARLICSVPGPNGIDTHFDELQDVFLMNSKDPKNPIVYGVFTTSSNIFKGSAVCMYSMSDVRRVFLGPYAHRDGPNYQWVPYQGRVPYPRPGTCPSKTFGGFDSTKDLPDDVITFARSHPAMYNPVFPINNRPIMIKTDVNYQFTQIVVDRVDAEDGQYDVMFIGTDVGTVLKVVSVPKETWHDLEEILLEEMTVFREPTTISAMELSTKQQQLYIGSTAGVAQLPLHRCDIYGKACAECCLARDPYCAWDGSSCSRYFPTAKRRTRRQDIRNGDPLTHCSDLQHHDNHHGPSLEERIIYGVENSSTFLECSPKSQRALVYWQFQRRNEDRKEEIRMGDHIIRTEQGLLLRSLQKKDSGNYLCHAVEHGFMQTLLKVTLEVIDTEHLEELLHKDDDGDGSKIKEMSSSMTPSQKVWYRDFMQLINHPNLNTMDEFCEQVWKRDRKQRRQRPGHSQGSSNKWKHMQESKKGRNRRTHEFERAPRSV
Method: (§1) The running buffer for this experiment and all dilutions (except where stated) were done in PBS-T-EDTA with 0.01% Tween20 [100 ul of 100% Tween20 was added to 2L of PBS-T-EDTA to make final Tween 20 concentration of 0.01%]. The GLM sensorchip was normalized and pre-conditioned as per the manufacturer's recommendations. The sensorchip was activated with equal mixture of EDC/s-NHS in the horizontal direction for 300 sec at a flow rate of 30 μl/min and immobilized with Human Fab Binder (10 μg/ml in 10 mM acetate pH 5.0) in the horizontal direction for 300 sec at a flowrate of 30 μl/min resulting in ˜6739-7414 RU of Human Fab Binder on the surface. The sensorchip was deactivated with 1M ethanolamine HCl in the horizontal direction for 300 sec at a flowrate of 30 μl/min. The sensorchip was stabilized with 18 sec of 10 mM glycine, pH 2.1 at a flowrate of 100 μl/min 1 time horizontally and 1 time vertically.
(§2) The inventors tested an exemplary antibody according to the invention (clone I). Said antibody (0.5 μg/ml) was captured on the Human Fab Binder surface vertically for 300 sec at a flowrate of 25 μl/min resulting ˜180 RU capture level. The baseline was stabilized by injecting PBS-T-EDTA for 60 sec at a flowrate of 40 μl/min horizontally. The analyte was injected horizontally over the captured antibody for 600 sec at a flowrate of 40 μl/min and a dissociation for 7200 sec. The concentrations of the analytes were 0 nM, 0.625 nM, 1.25 nM, 2.5 nM, 5 nM, and 10 nM. The surface was regenerated by injecting 10 mM glycine, pH 2.1 for 18 sec at a flowrate of 100 μl/min one time horizontally and one time vertically. PBS-T-EDTA was injected for 60 sec at a flowrate of 25 μl/min one time vertically.
(§3) The interspot (interactions with sensor surface) and blank (PBS-T-EDTA with 0.01% Tween20 or 0 nM analyte) were subtracted from the raw data.

[5] = molecular target: T3, Rat Sema3A (rat, UniProt Q63548 21-772, limits assumed); test: as above
T3 construct: Construct not described
T3 sequence (looked up): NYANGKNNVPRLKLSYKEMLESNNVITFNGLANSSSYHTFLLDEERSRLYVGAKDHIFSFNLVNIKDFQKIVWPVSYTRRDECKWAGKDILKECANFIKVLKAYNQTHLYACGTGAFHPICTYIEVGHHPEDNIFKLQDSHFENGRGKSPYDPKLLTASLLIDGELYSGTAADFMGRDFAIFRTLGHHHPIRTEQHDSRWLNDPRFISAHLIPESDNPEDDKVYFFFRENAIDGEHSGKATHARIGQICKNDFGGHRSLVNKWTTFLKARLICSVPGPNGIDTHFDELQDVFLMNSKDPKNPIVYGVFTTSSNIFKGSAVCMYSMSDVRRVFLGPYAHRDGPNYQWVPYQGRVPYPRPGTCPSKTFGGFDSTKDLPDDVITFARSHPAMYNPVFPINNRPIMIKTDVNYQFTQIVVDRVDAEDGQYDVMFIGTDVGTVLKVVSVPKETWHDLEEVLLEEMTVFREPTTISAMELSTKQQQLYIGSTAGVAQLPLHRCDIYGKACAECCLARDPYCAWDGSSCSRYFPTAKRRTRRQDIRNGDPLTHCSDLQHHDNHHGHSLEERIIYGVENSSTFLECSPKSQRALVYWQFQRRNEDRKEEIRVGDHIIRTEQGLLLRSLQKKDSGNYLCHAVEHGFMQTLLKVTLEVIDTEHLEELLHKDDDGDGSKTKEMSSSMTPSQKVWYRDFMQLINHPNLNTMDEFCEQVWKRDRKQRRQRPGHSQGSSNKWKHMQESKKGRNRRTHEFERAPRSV
Method: as §1, §2, §3

[6] = molecular target: T1, Human semaphorin 3A (Sema3A); test: as above
Method: as §1, §2, §3

[7] = molecular target: T4, Rabbit Sema3A (rabbit, UniProt G1T285 21-770); test: as above
T4 construct: Construct not described
T4 sequence: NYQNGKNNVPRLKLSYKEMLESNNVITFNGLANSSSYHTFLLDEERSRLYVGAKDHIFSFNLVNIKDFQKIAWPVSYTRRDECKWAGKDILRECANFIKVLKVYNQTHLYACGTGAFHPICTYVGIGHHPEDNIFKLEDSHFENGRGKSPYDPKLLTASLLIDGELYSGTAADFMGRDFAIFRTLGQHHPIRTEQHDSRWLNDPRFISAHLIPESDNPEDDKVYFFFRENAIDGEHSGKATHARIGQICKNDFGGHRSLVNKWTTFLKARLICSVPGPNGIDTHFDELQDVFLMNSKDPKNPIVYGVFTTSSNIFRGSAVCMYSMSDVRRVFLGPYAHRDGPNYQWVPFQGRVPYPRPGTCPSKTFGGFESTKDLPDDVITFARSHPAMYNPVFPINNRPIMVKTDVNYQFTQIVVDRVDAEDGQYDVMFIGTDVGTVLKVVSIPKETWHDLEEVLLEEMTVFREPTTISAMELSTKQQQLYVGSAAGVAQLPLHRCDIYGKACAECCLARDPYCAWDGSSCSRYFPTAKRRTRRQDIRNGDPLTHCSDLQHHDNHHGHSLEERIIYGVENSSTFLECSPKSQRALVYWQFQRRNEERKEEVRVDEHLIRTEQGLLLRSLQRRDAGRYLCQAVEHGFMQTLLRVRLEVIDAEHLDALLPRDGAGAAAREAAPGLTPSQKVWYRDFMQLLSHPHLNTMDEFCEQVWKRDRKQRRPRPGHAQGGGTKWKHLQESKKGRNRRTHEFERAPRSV
Method: as §1, §2, §3

[8] = molecular target: T2, Mouse Sema3A; test: SPR (BioRad GLM chip), antibody captured on goat anti-human IgG, Sema3A as analyte, 1:1 Langmuir fit
[9] = molecular target: T3, Rat Sema3A; test: as above
[10] = molecular target: T1, Human semaphorin 3A (Sema3A); test: as above
[11] = molecular target: T4, Rabbit Sema3A; test: as above

- Kd [1]: 0.028 nM
- Kd [2]: 0.032 nM
- Kd [3]: 0.035 nM
- Kd [4]: 0.027 nM
- Kd [5]: 0.027 nM
- Kd [6]: 0.029 nM
- Kd [7]: 0.042 nM
- Kd [8]: 0.035 nM
- Kd [9]: 0.0235 nM
- Kd [10]: 0.0347 nM
- Kd [11]: 0.0401 nM
B1: Antibody of the invention (clone I) (antibody, human IgG1, kappa, L234A L235A, V domains shown)
VH: EVQLVESGGGLVQPGGSLRLSCAASGFTFSSYYMSWVRQAPGKGLEWVSTIIKSGGYAYYPDSVKDRFTISRDNSKNTLYLQMSSLRAEDTAVYYCVRGGQGAMDYWGQGTTVTVSS
VL: EIVLTQSPATLSLSPGERATLSCRASQSIGDYLHWYQQKPGQAPRLLIKYASQSISGIPARFSGSGSGTDFTLTITSLEPEDFAVYYCQQGYSFPYTFGGGTKLEIKR
notes: also called clone 1; anti-Sema3A antibody of the invention
